In patent publication US20200002434A1 (BIOSION, published 2020):

Assays:
[1] = molecular target: recombinant human ErbB2 extracellular domain (ErbB2-ECD) (human) (UniProt P04626); assay: competitive ELISA vs biotin-Trastuzumab on ErbB2-ECD; control
[2] = molecular target: T1, recombinant Macaca mulatta ErbB2-ECD (Macaca mulatta, UniProt I0FM22 23-652); assay: indirect ELISA, coated ErbB2-ECD
T1 construct: extracellular domain
Method: (§1) Using indirect ELISA described in Example 1, the binding activity of antibodies of this invention to recombinant ErbB2-ECD derived from different species such as mouse, rat, Macaca mulatta, Macaca fascicularis and human, was examined. Briefly. Coat 96-well ELISA plates with 1 ug/ml recombinant ErbB2-ECD of different species with 100 ul/well and incubate at 4° C. for overnight. Remove the coating solution by discarding and tapping gently on a filter paper. Add 200 ul/well blocking buffer, incubate at 37° C. for 1-2 hours. Add purified antibody of this invention and incubate at 37° C. for one hour. Wash the plate 3 times with PBST, add goat anti-mouse IgG-HRP 100 ul/well, incubate at 37° C. for one hour. Wash the plate 3 times with PBST, add 100 ul/well TMB after 15 min, add 50 ul/well 1N HCl. Read the plate with Microplate Reader at 450 nm wavelength.
(§2) Following the same method described in Example 5, the binding activity of the chimeric antibodies of this invention was examined for binding recombinant ErbB2-ECD derived from different species such as mouse, rat Macaca mulatta, Macaca fasciculari and human.

[3] = molecular target: T2, recombinant rat ErbB2-ECD (rat, UniProt P06494 23-654); assay: indirect ELISA, coated ErbB2-ECD
T2 construct: extracellular domain
T2 sequence (P06494 23-654): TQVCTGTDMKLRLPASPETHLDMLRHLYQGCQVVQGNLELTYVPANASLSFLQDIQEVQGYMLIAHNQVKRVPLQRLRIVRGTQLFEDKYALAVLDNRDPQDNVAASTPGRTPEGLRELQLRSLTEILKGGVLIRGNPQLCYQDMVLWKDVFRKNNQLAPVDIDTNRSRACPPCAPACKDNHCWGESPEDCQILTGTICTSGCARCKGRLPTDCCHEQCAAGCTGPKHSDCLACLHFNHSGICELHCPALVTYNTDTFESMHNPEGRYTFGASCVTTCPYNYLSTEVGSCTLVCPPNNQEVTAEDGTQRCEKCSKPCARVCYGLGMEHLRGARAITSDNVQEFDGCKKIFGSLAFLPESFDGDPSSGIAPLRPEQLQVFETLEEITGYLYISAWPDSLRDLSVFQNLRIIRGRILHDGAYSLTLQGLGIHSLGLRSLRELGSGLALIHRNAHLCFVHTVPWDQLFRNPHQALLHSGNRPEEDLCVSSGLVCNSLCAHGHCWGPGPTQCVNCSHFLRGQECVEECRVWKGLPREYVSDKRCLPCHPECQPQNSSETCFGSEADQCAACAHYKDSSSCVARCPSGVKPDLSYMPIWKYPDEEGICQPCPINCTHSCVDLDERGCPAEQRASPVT
Method: as §1, §2

[4] = molecular target: T3, recombinant mouse ErbB2-ECD (mouse, UniProt P70424 23-653); assay: indirect ELISA, coated ErbB2-ECD
T3 construct: extracellular domain
T3 sequence (P70424 23-653): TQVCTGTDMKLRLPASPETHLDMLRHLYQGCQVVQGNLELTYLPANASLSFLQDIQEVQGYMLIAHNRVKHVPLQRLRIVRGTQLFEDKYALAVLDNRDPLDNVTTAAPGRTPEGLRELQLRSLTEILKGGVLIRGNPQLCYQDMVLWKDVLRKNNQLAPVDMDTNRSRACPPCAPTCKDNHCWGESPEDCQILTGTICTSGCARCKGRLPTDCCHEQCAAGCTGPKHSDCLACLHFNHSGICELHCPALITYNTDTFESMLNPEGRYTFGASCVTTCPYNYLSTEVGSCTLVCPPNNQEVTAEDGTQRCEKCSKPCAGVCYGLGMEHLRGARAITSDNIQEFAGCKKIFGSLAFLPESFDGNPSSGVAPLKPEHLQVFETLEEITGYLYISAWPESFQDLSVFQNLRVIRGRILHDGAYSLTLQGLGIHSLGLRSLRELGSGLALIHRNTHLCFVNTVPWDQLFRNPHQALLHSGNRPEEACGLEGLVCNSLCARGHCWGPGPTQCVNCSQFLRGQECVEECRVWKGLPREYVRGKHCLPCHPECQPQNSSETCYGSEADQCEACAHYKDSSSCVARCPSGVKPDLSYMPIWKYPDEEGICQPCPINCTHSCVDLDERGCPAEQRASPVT
Method: as §1, §2

[5] = molecular target: T4, human ErbB2 on ErbB2-positive cells (human, UniProt P04626 23-1255); assay: cell-based or functional assay
[6] = molecular target: T5, recombinant human ErbB2 extracellular domain (ErbB2-ECD) (human, UniProt P04626 23-652); assay: capture ELISA, recombinant ErbB2-ECD
T5 construct: extracellular domain; Coated on plates or used biotin-labeled in solution (capture ELISA); also called Human ErbB2-ECD; rhErbB2
Method: (§3) The corresponding purified IgG of five antibodies of this invention were also evaluated for their binding activity to recombinant human ErbB2 by capture ELISA. The procedure is briefly described as following: The 96-well plates were coated with 0.5 μg/ml anti-ErbB2 antibody overnight, blocked by 1% BSA in PBST at 37° C. for one hour. Add serial diluted sample of biotin-human ErbB2-ECD started with 2 μg/ml with 1:5 serial dilution. Wash the plate 3 times with PBST and add 100 ul of HRP-streptavidin (1:5000) to each well. Incubate for another 40 min at 37° C. Wash the plate 3 times with PBST and add 100 ul/well of TMB to develop at RT for 15 min followed by quenching with 50 ul 1N HCl. Read the plates at 450 nm for OD's value. Calculate the binding EC50 by using Prism software and the results are in Table 8 below
The variable domains of the heavy and light chain of the anti-ErbB2 monoclonal antibodies (Table 12, above) were cloned in-frame to human IgG1 heavy-chain and kappa light-chain constant regions, respectively.

[7] = molecular target: T5, recombinant human ErbB2 extracellular …; assay: capture ELISA, recombinant ErbB2-ECD; remark: listed apart in the source
[8] = molecular target: T5, recombinant human ErbB2 extracellular …; assay: capture ELISA, coated antibody, biotin-human ErbB2-ECD titrated
Method: as §3

[9] = molecular target: T4, human ErbB2 on ErbB2-positive cells; assay: cell-based or functional assay; remark: listed apart in the source
[10] = molecular target: T1, recombinant Macaca mulatta ErbB2-ECD; assay: indirect ELISA, coated ErbB2-ECD 1 ug/ml
Method: as §1

[11] = molecular target: T2, recombinant rat ErbB2-ECD; assay: indirect ELISA, coated ErbB2-ECD 1 ug/ml
Method: as §1

[12] = molecular target: T3, recombinant mouse ErbB2-ECD; assay: indirect ELISA, coated ErbB2-ECD 1 ug/ml
Method: as §1

[13] = molecular target: T4, human ErbB2 on ErbB2-positive cells; assay: cell-based or functional assay; remark: listed apart in the source

normal mouse IgG (antibody)
OD450 [1]: 2.8 OD

normal human IgG (antibody)
OD450 [1]: 2.91 OD

B1: 4H2 chimera (antibody, V domains shown)
VH: QVQLQQSGAELARPGASVKMSCKASGFTFTSYTIHWVKQRPGQGLDWIGYINPSSGYTTYNQRFKDKATLTADKSSSTAYMQLSSLTSADSAVYYCARASAYSLDYWGQGTTLTVSS
VL: DIQMTQSPSSLSASLGGKVTITCKASQDIDRYIAWYQHKPGKGPRLLIHYTSTLQPGIPSRFSGSGSGRNYSFSISNLEPEDIATYYCLKYDNLLWTFGGGTKLEIK
notes: also called 4H2 chimeric antibody
binding result [2]: binds | binding result [3]: no binding | binding result [4]: no binding | BT474 cell proliferation inhibition IC50 (hIgG + 4H2c) [5]: 19.3 nM | EC50 [6]: 0.118 nM

B2: 4G6 chimera (antibody, V domains shown)
VH: QVQLQQSGAELARPGASVKMSCKASGYTFTSYTMHWVKQRPGQGLEWIGYINPSSAYTNYNQKFKDKATLTADKSSSTANMQLNSLTSEDSAVYYCARASAYSLDYWGQGTALTVSS
VL: DIQMTQSPSSLSASLGGKVTITCKASQDINKYIAWYQHKPGKGPRLLIHSTSTLYPGIPSRFSGSGSGRDYSFRITNLEPEDIATYYCLQYDNLLWTFGGGTKVGIR
notes: also called 4G6 chimeric antibody
binding result [2]: binds | binding result [3]: no binding | binding result [4]: no binding | BT474 cell proliferation inhibition IC50 (hIgG + 4G6c) [5]: 36.3 nM | EC50 [6]: 0.02 nM

B3: 5G9 chimera (antibody, V domains shown)
VH: QVQLQQSGAELARPGASVKMSCKTSGYTFSSYTIHWVKQRPGQGLDWIGYINPSSDYTAYNQKFRDKATLTADQSSNTAYMQLSSLASADSAVYYCARASAFSLDFWGQGTTLTVSS
VL: DIQMTQSPSSLSASLGGKVTISCKASHDIDRYIAWYQHKPGKGPRLLIHYTSTLQPGIPSRFSGSGSGRDYSFSISNLEPEDVATYYCLNYDNLLWTFGGGTKLEIT
notes: also called 5G9 chimeric; 5G9 chimeric antibody
binding result [2]: binds | binding result [3]: no binding | binding result [4]: no binding | BT474 cell proliferation inhibition IC50 (hIgG + 5G9c) [5]: 43.4 nM | EC50 [6]: 0.049 nM | EC50 [7]: 0.044 nM

B4: 4G6 mouse anti-ErbB2 monoclonal antibody (antibody, mouse IgG1, V domains shown)
VH: QVQLQQSGAELARPGASVKMSCKASGYTFTSYTMHWVKQRPGQGLEWIGYINPSSAYTNYNQKFKDKATLTADKSSSTANMQLNSLTSEDSAVYYCARASAYSLDYWGQGTALTVSS
VL: DIQMTQSPSSLSASLGGKVTITCKASQDINKYIAWYQHKPGKGPRLLIHSTSTLYPGIPSRFSGSGSGRDYSFRITNLEPEDIATYYCLQYDNLLWTFGGGTKVGIR
notes: also called 4G6C9B8; IgG 4G6
EC50 [8]: 0.021 nM | BT474 cell proliferation inhibition IC50 (hIgG + 4G6) [9]: ~1.24 nM | binding result [10]: binds | binding result [11]: no binding | binding result [12]: no binding | Internalization rate in SKBR3 cells, FITC signal, 2-hour [13]: 18.5

B5: 5F12 mouse anti-ErbB2 monoclonal antibody (antibody, mouse IgG1, V domains shown)
VH: QVQLQQSGAELARPGASVKMSCKASGYTFTSYTMHWIKQRPGQGLEWIGYINPSSSYTNYNQNFKDKATLTADKSSSTANMQLNSLTSEDSAVYYCARASSYSLDYWGQGTALTVSS
VL: DIQMTQSPSSLSTSLGGKVTITCKASQDINKYIAWYQHKPGKGPRLLIHSTSTLYPGIPSRFSGSGSGKDYSFRITNLEPEDIATYYCLQYDNLLWTFGGGTKLGIR
notes: also called 5F12E5A8; IgG 5F12
EC50 [8]: 0.156 nM | BT474 cell proliferation inhibition IC50 (hIgG + 5F12) [9]: 0.7 nM | binding result [10]: binds | binding result [11]: no binding | binding result [12]: no binding | Internalization rate in SKBR3 cells, FITC signal, 2-hour [13]: 22.6
